# Experimental data from patent US20250304913A1.
# Legend:
# OT-I TCR [1] = experiment: cell-based or functional assay
# OT-I TCR [2] = experiment: cell-based or functional assay; remark: listed apart in the source
IFN-gamma positive bait CAR T cells in the presence of OT-I target cells (OT-I TCR [2]),IL-2 positive bait CAR T cells in the presence of OT-I cells (OT-I TCR [2]),activation of bait CAR T cells (expression of CD107a) in the presence of OT-I T cells (OT-I TCR [2]),degranulation of OT-I T cells (CD107a-positive) in co-culture with bait CAR T cells (OT-I TCR [2]),Molecule,proportion of surviving OT-I cells after 18 hours of co-culture (OT-I TCR [1]),proportion of surviving OT-I cells after 36 hours of co-culture (OT-I TCR [1]),proportion of surviving OT-I cells after 60 hours of co-culture (OT-I TCR [1]),OT-I cells remaining in the population after 48 hours of co-culture (competitive survival assay) (OT-I TCR [2])
–,–,–,–,OVA-MHCI Bait-CD3Zeta Fully Live CAR (peptide-MHC),32.1%,19.5%,0.69%,–
11.4%,14.9%,24.8%,80.4%,OVA-MHCI Bait-SIINFEKL CAR (peptide-MHC) SIINFEKLGGGGSGGGGSGGGGSIQKTPQIQVYSRHPPENGKPNILNCYVTQFHPPHIEIQMLENGKKIPKVEMSDMSFSKDWSFYILAHTEFTPTETDTYACRVKHASMAEPKTVYWDRDMGGGGSGGGGSGGGGSGGGGSGPHSLRYFVTAVSRPGLGEPRYMEVGYVDDTEFVRFDSDAENPRYEPRARWMEQEGPEYWERETQKAKGNEQSFRVDLRTLLGYYNQSKGGSHTIQVISGCEVGSDGRLLRGYQQYAYDGCDYIALNEDLKTWTAADMAALITKHKWEQAGEAERLRAYLEGTCVEWLRRYLKNGNATLLRTDSPKAHVTHHSRPEDKVTLRCWALGFYPADITLTWQLNGEELIQDMELVETRPAGDGTFQKWASVVVPLGKEQYYTCHVYHQGLPEPLTLRWEIEFMYPPPYLDNERSNGTIIHIKEKHLCHTQSSPKLFWALVVVAGVLFCYGLLVTVALCVIWTNSRRNRGGQSDYMNMTPRRPGLTRKPYQPYAPARDFAAYRPRAKFSRSAETAANLQDPNQLFNELNLGRREEFDVLEKKRARDPEMGGKQQRRRNPQEGVYNALQKDKMAEAYSEIGTKGERRRGKGHDGLFQGLSTATKDTFDALHMQTLAPR,–,–,–,5.01%
